Seven molecules from patent publication US10801046B2, “Methods and materials for biosynthesizing multifunctional, multivariate molecules via carbon chain modification” (INVISTA NORTH AMERICA S.A.R.L., priority 2016, dated 2020) can be followed below.

First the molecules themselves.
B1: SEQ ID NO: 168: Rhodospirillum centenum aminotransferase (protein)
chain: MPSTAPHLGNSIASRDIASLLHPYTNLKAHESVGPMVITGGRGVTVVDDAGREYIEGVAGLWCTSLGFDEPRLVEAAVRQLRTLPFYHAFAHKSHEPGIELAEKLVALAPVPMSKAFFACSGSEANDTAVKLVWYYNNALGRPQKKKIIGRIKAYHGVTVASASLTGLPNNHRDFDLPIDRILHTDCPHWYRFHEEGEDEEAFASRLAASLEALIQREGPETVAAFIAEPVMGAGGVIVPPRTYFEKIQAVLRKHDVLLIADEVICGFGRTGAMFGSETFGLKPDIMTMAKALTSAYMPLSAVLVSEPIYRACVAESEKIGVFGHGYTYSGHPVSCAVALETLKIYEERDIVAHTRAVGARLQEGLARYRSHPLVGEVRGVGLIAGVELVADKATRQPFDPKLGVAARLAGFAQGHGAILRPIGDTLGFSPPLIITPEEVDELVARFGRALDDTTAWLEHEHRFRPA
modifications: Rhodospirillum centenum (strain ATCC 51521 / SW)
notes: Rhodospirillum centenum aminotransferase
B2: SEQ ID NO: 171: Tistrella mobilis aminotransferase (protein)
chain: MAYSPNSPEARDIAYHLHSYTDARRHEETGSVVLEKGDGVFVEDIHGNRYIEAMAGLWSVALGFSEKRLADAAARQMAKLPFAHTFSYKSNGPVIDLAEKLISLAPVPMSKVFFTNSGSEANDTILKLLWYRSNSMGQPQRKKIISRVRGYHGVTIASASLTGLPNNHRSFDLPIANVLHTGSPHHWKDANPGESEEDFATRRAEELEAMILAEGPETIMAFIGEPVMGAGGVVVPPATYWEKIQAVLAKYDILLIADEVICGFGRTGNMFGSQTYDMRPDIMTMSKQLSSSYLPISAFMINEKVYGPIADESHRIGVLGHGFTAGGHPVASAVALENLKIIEERDLVANAREMGERLRGRFHALEGHPLVGEVRGVGLIAAVELVTNKEAKTALEAPGALGGKVAAALQARGVIVRNMLDAIAFCPPLIIKAEEVDMIADRFEAVLNDVAAEVL
modifications: Tistrella mobilis (strain KA081020-065)
notes: Tistrella mobilis aminotransferase
B3: SEQ ID NO: 170: Acidimicrobium ferrooxidans aminotransferase (protein)
chain: MGRFWHPFGQLYESDTNPVVFVRGEGIWVYDDTGRRYLDATAALWYANVGHGRAEIADAIAAQARELAGYSTFGTFSNRPAEELAEFLSARSPMPESEVFFVSGGGDAVETAVKLARRYFSLVGQPERTVLISRTNGYHGTWGFGTSLGGIPANRTGFGELIPTTVQVPWDDVEAVEAAIVANGPERVAAVIAEPVIGAGGVYPPPPGYFEALGATCRRHGVLLIVDSVICGFGRLGTWFGIERLGVEPDLITFAKGVTSGYLPLGGVMVSGRVAAPFKQPGAPVFRHGPTYGGHPTCTAAGIANCRILEDEQILARGAVLEGELLARLRPLASSALVAEVRGGLGLLGAVELRSDLLAEHPDALARLARLALERGIIVRVLATSIALSPPLIIEPAEIGVIVEGLADALDALAAEL
modifications: Acidimicrobium ferrooxidans; Acidimicrobium ferrooxidans (strain DSM 10331 / JCM 15462 / NBRC 103882 / ICP)
notes: Acidimicrobium ferrooxidans aminotransferase
B4: SEQ ID NO: 172: Pseudomonas taiwanensis SJ9 aminotransferase (protein)
chain: MSQSNILLAKKDVQHHLHPYTDARLHQDVGPLIIDRGEGVYVFDVEGKRYIEAMSGLWSVALGFSNERLVKAAEQQMRKLPFYHIFTHKGHGPSIELAEKLIEIAPVPMSKVFFTNSGSEANDTVVKMIWYRNNALGKPEKKKFISRLNAYHGITAVSASLTGLPVNQRGFDVPLPGFHHVSCPHFYRNGQPGETEEQFADRMAAELESVILREGPETIAAFYGEPLMGAGGVIVPPRTYWEKMQAVCRKYDILIVADEVICGFGRTGKMFGCETFGIQPDVMVISKQMSSSYQPIAAILINEKVFEGIADQSRALGTLGHGFTASGHPVASAVALENIKIIQEQNLVGHAAEMGELLRAKLAGFADHPMVGEVRGCGLIAAVELVTDRKTKAPFETVGRLGRFLAARAQAHGMITRPIGDSIAFCPPLISTKQEIQEIADIFGKAFEDTERWFSQGGK
modifications: Pseudomonas taiwanensis SJ9
notes: Pseudomonas taiwanensis SJ9 aminotransferase
B5: SEQ ID NO: 122: Mesorhizobium sp. LC103 aminotransferase (protein)
chain: MLDKPPLSNLQARDVASVLHPYTPLHKLETMGPLVIERGEGVYVYDTQGKAYIEGMSGLWCAGLGFGDEEMIDAATEQLRTLPYYHLFGAKGTESAIELAEKLKEIAPVPISKVFFTSSGSEANDTQVKLAWYLNNALGRPNKKKIISRQKAYHGVTIMSASLTGLPYNHIGWDLPVDRVLHTDCPHYYRFGQEGESEAEFVNRMVKSLRDLIEREGPDTIAAMIAEPVMGAGGVIVPPEGYYPAIQAVLDEHDIIMISDEVINGFGRTGNWWGSQTLGMTPKTISAAKQMTSAYAPLGAVMVPEDIYQAYVSHSEKIGTFGHGFTYGGHPLGCALGVKAIEIYQKRDILGHVRSLSPQFERRMRKLTEHPLVGEARYCGLVGGVEIVADKKTKRPFDPKVGVGPQCAKFVEERGAILRAIGDTIALCPPMIIKEDELDELFDRLEKALDDTEAWVAKEGLRAL
modifications: Mesorhizobium sp. LC103
notes: Mesorhizobium sp; LC103 aminotransferase
B6: SEQ ID NO: 138: Thalassospira profundimaris WP0211 aminotransferase (protein)
chain: MNHRPNSLHMSDIAHSMHPYTNMRLHEEKGPMIMAEGNGARVTDSEGKEYIEGLAGLWSVAVGFSETRLADAAYAQLKRLPYYHSFAHKAHEPSIRLAEKLVEMTPEGLNRVFFTNSGSEANDTVVKMAWFLNNGLGRPEKKKFLSRTKAYHGITIASGSLTGLAGNQKDFDLPAIPVTHLSCPHFWRYGEEGETETEFTARLLKELEDTIIAEGPETIAAFIGEPVMGAGGVMTPPEGYWPGVVEICHKYDILVVSDEVINGFGRTGARFGCEKYGFTPDILVTSKQLTSSYMPLAAIVVNDKVYNAIADNTAKLGNFGHGFTGTGHPVACAVGLENLNIIEERDLMGNAKRLEPMFQDGLRAFADHPLIGEIRGVGLIAGLEMADKKTKQPFGKPGTVAAKVVALAAEEGLICRNVYDTVALCPPLIVTEDDVREIHARLGRALDRALDWAKSEGML
modifications: Thalassospira profundimaris WP0211
notes: Thalassospira profundimaris WP0211 aminotransferase
B7: SEQ ID NO: 169: Marine sediment metagenome aminotransferase (protein)
chain: MTVQPNSIEARDIAFHLHSYTNARKHETNGPVVIDKGEGVFVTDTDGNRYIEAMAGLWSVAVGFGEKRLVDAAAKQMGKLPYYHTFTHKSHSPAIELAEKLVAMAPVPMSKAYFTNSGSEANDTMMKLVRYRSNALGQPQKKKFISRMRGYHGVTLASASLTGLVNNHRDFDLPIEGVLHTTCPHYWREGRDGESEEDFATRCAEDLEAMIQAEGPETIAAFIGEPVMGAGGVVVPPATYWEKIQAVLKRHDILLVADEVICGFGRTGEMFGSQTYGIEPDIMTLSKALSSSYLPISALLINEKVYGPIADRSAEIGTLGTGYTASGHPVAAAVALENLKIIEERDLVGNAREMGTLMQCRLRELENHPLVGEVRGVGLIAAIELVTDKKAKVAMQPPGAMAAQAFAILQKNGVISRAIGDALAFCPPLIIEAGHIDTIVETTRRSLDELQASL
modifications: Description of Unknown: Marine sediment metagenome
notes: Marine sediment metagenome aminotransferase

The experiment can be described thus: In vivo aminotransferase activity screening, 7-aminoheptanoate by LC-MS. It is filed as cell-based, Escherichia coli. The settings on record: in vivo conversion of 7-oxoheptanoate to 7-aminoheptanoate, 120 aminotransferases screened. How it is done:
A 165-member aminotransferase library from Twist on IPTG-inducible T7- pUC expression vectors was co-transformed into T7 Express lysY/Iq with a constitutive expression pJ23150-derived plasmid bearing the phosphopantetheinyl transferase sfp from Bacillus subtilis, CAR_Srot from Invista and BioC from Serratia marcescens (UniprotKB Accession No. P36571 (SEQ ID NO: 165)). The resulting strains were incubated in 0.5 ml of rich media (terrific broth or LB containing 8% glycerol) supplemented with 0.4 mM IPTG and received 1 g/L monomethyl heptanedioate, 1 g/L heptanedioate, or no organic acid addition, depending on the experiment. Following incubation overnight at 37° C. in a shaking incubator, cells were pelleted and the supernatants were analyzed using LC-MS for 7-aminoheptanoate or monomethyl 7-aminoheptanoate. A Vibrio fluvialis aminotransferase (UniProtKB Accession No. F2XBU9 (SEQ ID NO: 128)) was used as a positive control.
As for B1, the “7-aminoheptanoate yield compared to the positive control (F2XBU9)” value was “higher 7-aminoheptanoate yields”.
To B2 belongs “higher 7-aminoheptanoate yields”.
To B3 belongs “higher 7-aminoheptanoate yields”.
As for B4, the “7-aminoheptanoate yield compared to the positive control (F2XBU9)” value is given as “higher 7-aminoheptanoate yields”.
The value for B5 was “higher 7-aminoheptanoate yields”; that for B6 was “higher 7-aminoheptanoate yields”; that for B7 was “higher 7-aminoheptanoate yields”.
